The substances below were run against SARS-CoV-2 receptor binding domain, omicron subvariant BA5 (RBDBA5) (UniProt P0DTC2) (assay: SPR).

Q: Which Kd does the source give for antibody 10-40 H:R100bL here?
A: 155 pM

Q: What about the ratio to parent of the same substance?
A: 1.72

Q: With antibody 10-40 H:S98R as the substance, how does the ratio to parent read?
A: 0.26

Q: How did the Kd turn out when antibody 10-40 H:R100bI; H:S32H; L:Q53F was run?
A: 0.05 pM

Q: How did the ratio to parent turn out when antibody 10-40 H:G27S was run?
A: 0.79

Q: How did the ratio to parent turn out when antibody 10-40 L:D51W was run?
A: 0.5

Q: Which Kd does the source give for antibody 10-40 H:R100bI; H:S32H here?
A: 2.05 pM

Q: And the ratio to parent?
A: 130

Q: How did the Kd turn out when antibody 10-40 H:R100bI was run?
A: 69.5 pM

Q: And the ratio to parent?
A: 3.83

Q: How did the Kd turn out when antibody 10-40 L:Q53F was run?
A: 188 pM

Q: What about the ratio to parent of the same substance?
A: 1.42

From paper PMC10235760
